Assay [1] has as its target α4β1 integrin on J6.77 cells (UniProt P13612). Nature of the assay: cell-based or functional assay.
Assay [2] addresses human αVβ6 integrin on cells (human) (UniProt P06756). Nature of the assay: cell-based or functional assay.
Assay [3] deals with cynomolgus αV on transfected HEK-293 cells (cynomolgus). Nature of the assay: FACS, transfected HEK-293 (parental: 0).
Assay [4] concerns the target cynomolgus αVβ6 on cells (cynomolgus). In words: FACS, transfected HEK-293 (parental: 0). (A flow cytometer gives signals particle by particle.)
Assay [5] deals with cynomolgus β6 on transfected HEK-293 cells (cynomolgus). Nature of the assay: FACS, transfected HEK-293 (parental: 0).
The target of assay [6] is mouse αV on transfected HEK-293 cells (mouse) (UniProt P43406). Nature of the assay: FACS, transfected HEK-293 (parental: 0).
mouse αV on transfected HEK-293 cells (mouse), sequence (P43406 31-1044): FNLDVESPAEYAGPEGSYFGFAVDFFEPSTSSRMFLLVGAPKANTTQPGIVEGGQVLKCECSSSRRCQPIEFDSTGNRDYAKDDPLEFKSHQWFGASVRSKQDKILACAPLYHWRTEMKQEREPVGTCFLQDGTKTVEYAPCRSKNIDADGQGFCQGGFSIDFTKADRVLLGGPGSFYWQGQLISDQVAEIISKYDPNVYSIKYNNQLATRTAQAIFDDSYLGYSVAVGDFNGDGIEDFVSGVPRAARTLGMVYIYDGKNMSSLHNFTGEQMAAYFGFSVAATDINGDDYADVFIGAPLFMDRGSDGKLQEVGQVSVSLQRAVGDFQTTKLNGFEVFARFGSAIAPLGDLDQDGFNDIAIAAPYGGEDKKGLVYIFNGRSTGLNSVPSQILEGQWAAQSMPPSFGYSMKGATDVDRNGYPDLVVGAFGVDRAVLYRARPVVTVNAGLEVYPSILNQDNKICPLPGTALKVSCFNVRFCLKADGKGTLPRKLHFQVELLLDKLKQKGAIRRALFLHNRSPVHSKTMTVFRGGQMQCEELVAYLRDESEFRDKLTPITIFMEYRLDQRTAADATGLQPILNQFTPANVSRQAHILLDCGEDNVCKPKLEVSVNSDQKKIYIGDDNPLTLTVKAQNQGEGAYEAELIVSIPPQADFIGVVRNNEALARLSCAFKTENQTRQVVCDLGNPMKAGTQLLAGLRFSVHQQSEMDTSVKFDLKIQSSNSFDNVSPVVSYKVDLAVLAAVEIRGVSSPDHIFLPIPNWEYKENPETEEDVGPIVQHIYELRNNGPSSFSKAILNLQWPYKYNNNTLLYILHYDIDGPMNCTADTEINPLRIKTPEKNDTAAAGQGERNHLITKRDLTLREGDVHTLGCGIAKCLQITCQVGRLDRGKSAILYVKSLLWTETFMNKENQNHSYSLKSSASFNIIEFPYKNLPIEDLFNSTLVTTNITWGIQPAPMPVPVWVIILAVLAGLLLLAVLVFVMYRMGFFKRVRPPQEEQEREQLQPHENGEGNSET
The target of assay [7] is mouse αVβ6 on cells (mouse) (UniProt P43406). Nature of the assay: FACS, transfected HEK-293 (parental: 0).
mouse αVβ6 on cells (mouse), sequence (P43406 31-1044, chain 1 of 2): as the sequence (P43406 31-1044) above
mouse αVβ6 on cells (mouse), sequence (Q9Z0T9 22-787, chain 2 of 2, further chain): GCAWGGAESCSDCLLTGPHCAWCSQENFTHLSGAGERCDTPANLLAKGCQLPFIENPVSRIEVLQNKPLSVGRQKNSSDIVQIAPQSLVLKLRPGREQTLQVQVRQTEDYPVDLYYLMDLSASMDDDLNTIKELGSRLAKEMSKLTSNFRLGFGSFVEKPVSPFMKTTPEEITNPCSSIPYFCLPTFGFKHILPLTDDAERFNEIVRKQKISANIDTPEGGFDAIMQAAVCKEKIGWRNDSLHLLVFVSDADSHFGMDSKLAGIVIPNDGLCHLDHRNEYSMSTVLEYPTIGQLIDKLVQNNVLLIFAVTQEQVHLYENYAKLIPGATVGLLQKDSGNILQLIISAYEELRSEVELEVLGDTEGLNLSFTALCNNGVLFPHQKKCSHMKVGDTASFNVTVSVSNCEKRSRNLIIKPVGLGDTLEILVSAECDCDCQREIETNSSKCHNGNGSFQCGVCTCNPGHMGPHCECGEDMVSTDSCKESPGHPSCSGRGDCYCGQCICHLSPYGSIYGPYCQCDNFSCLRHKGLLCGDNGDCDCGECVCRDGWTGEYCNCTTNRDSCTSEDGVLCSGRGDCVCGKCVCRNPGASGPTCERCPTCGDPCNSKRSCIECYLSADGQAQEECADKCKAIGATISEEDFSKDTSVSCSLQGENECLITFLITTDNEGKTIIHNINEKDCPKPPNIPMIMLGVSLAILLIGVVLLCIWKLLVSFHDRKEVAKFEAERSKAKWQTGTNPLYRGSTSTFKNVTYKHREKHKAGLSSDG
The target in assay [8] is mouse β6 on transfected HEK-293 cells (mouse) (UniProt Q9Z0T9). In words: FACS, transfected HEK-293 (parental: 0).
mouse β6 on transfected HEK-293 cells (mouse), sequence (Q9Z0T9 22-787): as the sequence (Q9Z0T9 22-787, chain 2 of 2, further chain) above
For assay [9], the target named is human αV on parental A375M cells (αVβ3 and αVβ5 integrins) (human) (UniProt P06756). In words: FACS, 1 ug/ml, parental A375M cells, day 1.
human αV on parental A375M cells (αVβ3 and αVβ5 integrins) (human), sequence (P06756 31-1048 A375M, form in doubt): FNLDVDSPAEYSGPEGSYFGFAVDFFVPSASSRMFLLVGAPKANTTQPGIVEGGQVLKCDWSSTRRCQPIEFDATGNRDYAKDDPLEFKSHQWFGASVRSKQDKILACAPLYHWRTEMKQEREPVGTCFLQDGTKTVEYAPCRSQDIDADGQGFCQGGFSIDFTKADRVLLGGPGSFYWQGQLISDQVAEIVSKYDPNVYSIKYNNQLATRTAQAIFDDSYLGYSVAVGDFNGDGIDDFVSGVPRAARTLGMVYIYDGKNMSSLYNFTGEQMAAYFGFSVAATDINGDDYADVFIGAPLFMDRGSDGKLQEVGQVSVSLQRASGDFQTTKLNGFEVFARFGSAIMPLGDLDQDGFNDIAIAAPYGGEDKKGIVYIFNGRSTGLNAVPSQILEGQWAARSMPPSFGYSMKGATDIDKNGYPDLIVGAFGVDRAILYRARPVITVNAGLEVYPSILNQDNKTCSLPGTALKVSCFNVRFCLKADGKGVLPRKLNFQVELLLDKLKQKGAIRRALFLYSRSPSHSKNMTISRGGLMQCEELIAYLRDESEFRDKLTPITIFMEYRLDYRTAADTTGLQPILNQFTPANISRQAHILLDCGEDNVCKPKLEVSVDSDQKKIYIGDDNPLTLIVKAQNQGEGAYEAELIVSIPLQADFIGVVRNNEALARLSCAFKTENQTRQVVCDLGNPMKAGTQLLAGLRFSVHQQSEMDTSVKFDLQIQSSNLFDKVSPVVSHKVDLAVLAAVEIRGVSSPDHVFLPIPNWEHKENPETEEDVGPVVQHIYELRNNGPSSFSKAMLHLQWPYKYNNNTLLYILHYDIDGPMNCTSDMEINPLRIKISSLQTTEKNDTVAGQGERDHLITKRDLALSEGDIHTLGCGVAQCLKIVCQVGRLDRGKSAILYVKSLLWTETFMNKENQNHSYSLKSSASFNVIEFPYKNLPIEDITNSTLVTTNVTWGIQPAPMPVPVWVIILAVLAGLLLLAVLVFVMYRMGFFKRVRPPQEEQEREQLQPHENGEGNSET
Assay [10] shares this target. In words: FACS, 1 ug/ml, parental A375M cells, day 2.
A further assay concerns the target soluble αVβ6 (human) (UniProt P06756). Nature of the assay: ELISA, 1 ug/mL on plate-coated soluble αVβ6.
Assay [11] deals with human αVβ6 integrin on cells (human) (UniProt P06756). In words: FMAT, 1 ug/mL, HEK 293 cells stably overexpressing αVβ6.
human αVβ6 integrin on cells (human), sequence (P06756 31-1048, chain 1 of 2): as the sequence (P06756 31-1048 A375M, form in doubt) above, with M345A counted along it
human αVβ6 integrin on cells (human), sequence (P18564 22-788, chain 2 of 2, further chain): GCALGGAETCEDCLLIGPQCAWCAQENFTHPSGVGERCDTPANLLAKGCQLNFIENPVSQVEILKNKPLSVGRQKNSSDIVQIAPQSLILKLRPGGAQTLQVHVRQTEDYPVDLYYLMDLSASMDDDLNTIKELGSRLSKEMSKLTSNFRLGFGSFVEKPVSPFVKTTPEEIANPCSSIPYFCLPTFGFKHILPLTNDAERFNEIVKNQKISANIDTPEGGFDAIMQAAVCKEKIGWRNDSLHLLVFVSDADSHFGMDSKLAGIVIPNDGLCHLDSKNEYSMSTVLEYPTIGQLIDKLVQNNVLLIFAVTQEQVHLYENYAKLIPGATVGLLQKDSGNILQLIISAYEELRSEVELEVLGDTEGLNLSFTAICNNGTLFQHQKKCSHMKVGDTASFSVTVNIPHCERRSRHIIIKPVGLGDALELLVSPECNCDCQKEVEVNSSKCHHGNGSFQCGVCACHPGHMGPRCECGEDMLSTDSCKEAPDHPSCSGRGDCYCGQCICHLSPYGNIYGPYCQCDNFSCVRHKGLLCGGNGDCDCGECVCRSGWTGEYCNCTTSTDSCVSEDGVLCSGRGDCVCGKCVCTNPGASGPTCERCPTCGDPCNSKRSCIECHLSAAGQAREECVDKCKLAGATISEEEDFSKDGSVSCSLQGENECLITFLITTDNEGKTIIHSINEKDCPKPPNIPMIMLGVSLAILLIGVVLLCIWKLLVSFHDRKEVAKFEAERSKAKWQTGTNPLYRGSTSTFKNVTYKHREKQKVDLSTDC
Assay [12] deals with mouse αVβ6 on cells (mouse) (UniProt P43406). Nature of the assay: FACS, K562 cells expressing mouse αVβ6 (parental K562: 15).
For assay [13], the target named is cynomolgus αVβ6 on cells (cynomolgus). In words: FACS, K562 cells expressing cynomolgus αVβ6 (parental K562: 15).
Assay [14] shares this target. Nature of the assay: FACS, 1 ug/ml, HEK-293 transfected with cynomolgus αV and β6, day 1.
Assay [15] shares this target. Nature of the assay: FACS, 1 ug/ml, HEK-293 transfected with cynomolgus αV and β6, day 2.
The target in assay [16] is human αV on parental A375M cells (αVβ3 and αVβ5 integrins) (human) (UniProt P06756). Nature of the assay: cell-based or functional assay.
Assay [17] addresses α5β1 integrin on K562 cells (UniProt P08648). In words: cell-based or functional assay.

Take Human IgG1 (antibody): the Percent Inhibition of J6.77 adhesion to CS-1 peptide, 5 ug/ml in assay [1] was -6%.

For the substance “murine anti-αVβ6 antibody 2077z (Cat#MAB2077z, Chemicon)”, the Estimated IC50, adhesion assay, n = 1 in assay [2] was 0.226 µg/mL. Further, in assay [2], the Estimated IC50, adhesion assay, n = 2 is 0.185 µg/mL. In assay [2], the Estimated IC50, adhesion assay, n = 3 was 0.286 µg/mL. Moreover, the percent of cells shifted in [3] amounted to 0%; in assay [4], 20%; in assay [5], 5%; in assay [6], 1%; in assay [7] it was 45%; in [8], 11%. Moreover, the % Cells Shifted in assay [9] was found to be 30%; in [10], 5%; in assay [14] it was 42%; in assay [15] it was 11%. The GeoMean in assay [9] worked out at 2.03; in assay [10], 15.4; in [14], 55.5; in assay [15] it was 28.1. The same substance displayed an ELISA OD with soluble αVβ6 (human) of 6 OD. Besides, the FMAT Count in assay [11] turned out to be 67. The FMAT FL1 in assay [11] worked out at 659. In assay [11], the FMAT FL1XCount is 44200. The Geometric Mean Shift (arbitrary units) was determined as 122 in assay [12] and 84 in assay [13].

Regarding Human IgG2 (antibody), the Percent Inhibition of J6.77 adhesion to CS-1 peptide, 5 ug/ml in assay [1] is -9%.

For the substance Mouse IgG Control (antibody), the Percent Inhibition of A375M adhesion to osteopontin peptide, 5 ug/ml in assay [16] amounted to 5%.

As for Human IgG Isotype Control (antibody), the Percent Inhibition of A375M adhesion to osteopontin peptide, 5 ug/ml in assay [16] came out at 3%. Further, in [17], the % Inhibition of K562 adhesion to fibronectin was -12% and the Percent Inhibition of K562 adhesion to FN9-10, 5 ug/ml was determined as 11%.

The record behind these values is US20160319032A1.
